We go through one substance from article PMC5082641.

The target in experiment [1] is SpyTag-EGFP-SdyTag (Streptococcus pyogenes | Streptococcus dysgalactiae). The experiment is described as follows: covalent ligation read by SDS-PAGE and densitometry; step-wise reaction of dual-Tag constructs with SpyCatcher, 5 and 30 minutes; at 5 minutes aliquots given additional SpyCatcher or SdyCatcher DANG short for a further 25 minutes.
Experiment [2] addresses SdyTag-EGFP (Streptococcus dysgalactiae). As to the kind of experiment: kinetics of covalent ligation by SDS-PAGE and densitometry; equimolar Catcher and Tag-EGFP (10 uM for SpyTag-EGFP; 50 uM for SdyTag-EGFP by S3 and S4 Figs), 100 uM sodium phosphate buffer pH 7, 25°C; second order rate constants from Catcher depletion; triplicates.
Experiment [3] addresses SpyTag-EGFP (Streptococcus pyogenes). The description is as above.
The target in experiment [4] is SdyTag-EGFP (Streptococcus dysgalactiae). As to the kind of experiment: covalent ligation read by SDS-PAGE and densitometry; 50 uM Catcher with 65 uM SdyTag-EGFP (1.3 equivalents), 100 uM sodium phosphate buffer pH 7, 25°C, 40 minutes; quenched with SDS-PAGE loading buffer and boiled; yield with respect to the limiting Catcher; triplicates.

Consider SpyCatcher (domain or fragment), for which, in experiment [1], the percent of products ligated twice is under 10%. For the same substance, the second order rate constant of covalent ligation came out at 60 M⁻¹ min⁻¹ in experiment [2] and 19300 M⁻¹ min⁻¹ in experiment [3]. Further, the yield of ligated product after 40 minutes in experiment [4] worked out at 7%.
